# Experimental data from patent publication US20210024620A1.
# How the values were obtained:
# [1] = biological target: biotinylated human FcRn (human) (UniProt P55899); assay: Biacore, biotin-captured hFcRn, pH 6.0
# [2] = biological target: Human CD16a (FcγRIIIa residues 17-208 with C-terminal HPC4 tag and valine at position 158) (human) (UniProt P08637); assay: Biacore SPR, HPC4-tagged FcγRIIIa-V158 captured by anti-HPC4, pH 7.4
# [3] = biological target: biotinylated cynomolgus FcRn (cynomolgus) (UniProt Q8SPV9); assay: Biacore, pH 7.4, steady state response
# [4] = biological target: biotinylated human FcRn (human) (UniProt P55899); assay: Biacore, pH 7.4, steady state response
# mouse FcRn (mouse) = mouse FcRn (mouse) (UniProt Q61559); assay: Biacore, pH 7.4, steady state response
# Sequence of mouse FcRn (mouse) (Q61559 22-297 limits assumed, chain 1 of 2): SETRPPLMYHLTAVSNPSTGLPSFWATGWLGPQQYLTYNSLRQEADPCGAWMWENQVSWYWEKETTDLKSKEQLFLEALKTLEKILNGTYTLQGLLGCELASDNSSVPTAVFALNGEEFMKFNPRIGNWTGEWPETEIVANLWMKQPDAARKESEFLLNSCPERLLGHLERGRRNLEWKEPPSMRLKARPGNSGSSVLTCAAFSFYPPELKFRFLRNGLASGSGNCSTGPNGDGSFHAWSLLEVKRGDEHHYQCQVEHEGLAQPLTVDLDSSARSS
# Sequence of mouse FcRn (mouse) (P01887 21-119 limits assumed, chain 2 of 2, further chain): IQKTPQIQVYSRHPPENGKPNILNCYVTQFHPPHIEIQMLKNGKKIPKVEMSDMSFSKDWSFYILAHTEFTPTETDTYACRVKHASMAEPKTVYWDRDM
# [5] = biological target: Human CD16a (FcγRIIIa V158) with C-terminal HPC4 tag (human) (UniProt P08637); assay: Biacore, FcγRIIIa V158 captured, relative to WT of the same backbone
# Sequence of Human CD16a (FcγRIIIa V158) with C-terminal HPC4 tag (human) (P08637 17-208 F176V): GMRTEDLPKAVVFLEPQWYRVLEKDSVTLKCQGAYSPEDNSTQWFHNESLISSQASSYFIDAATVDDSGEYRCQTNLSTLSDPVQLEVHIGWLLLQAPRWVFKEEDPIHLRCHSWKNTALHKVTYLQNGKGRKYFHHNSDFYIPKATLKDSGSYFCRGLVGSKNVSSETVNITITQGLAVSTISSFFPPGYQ
# [6] = biological target: biotinylated human FcRn (p51 subunit residues 24-297 with C-terminal Avi-tag; beta2-microglobulin residues 21-119) (human) (UniProt P55899); assay: Biacore SPR, pH 6.0
# Sequence of biotinylated human FcRn (p51 subunit residues 24-297 with C-terminal Avi-tag; beta2-microglobulin residues 21-119) (human) (P55899 24-297 limits assumed, chain 1 of 2): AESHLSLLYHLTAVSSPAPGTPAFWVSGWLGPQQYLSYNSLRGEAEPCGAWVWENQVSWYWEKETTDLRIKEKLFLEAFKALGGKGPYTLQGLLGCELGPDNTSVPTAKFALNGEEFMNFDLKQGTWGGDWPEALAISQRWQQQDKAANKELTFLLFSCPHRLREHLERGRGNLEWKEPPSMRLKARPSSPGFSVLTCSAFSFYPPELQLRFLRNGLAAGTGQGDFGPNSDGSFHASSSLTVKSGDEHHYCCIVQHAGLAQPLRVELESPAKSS
# Sequence of biotinylated human FcRn (p51 subunit residues 24-297 with C-terminal Avi-tag; beta2-microglobulin residues 21-119) (human) (P61769 21-119 limits assumed, chain 2 of 2, further chain): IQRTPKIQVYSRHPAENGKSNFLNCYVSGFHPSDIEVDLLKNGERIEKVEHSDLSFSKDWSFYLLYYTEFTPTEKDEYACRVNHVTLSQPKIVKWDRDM
# [7] = biological target: biotinylated human FcRn (p51 subunit residues 24-297 with C-terminal Avi-tag; beta2-microglobulin residues 21-119) (human) (UniProt P55899); assay: Biacore SPR, pH 7.4, steady state
# [8] = biological target: biotinylated human FcRn (human) (UniProt P55899); assay: Biacore, biotin-captured hFcRn, pH 7.4
# [9] = biological target: biotinylated human FcRn (human) (UniProt P55899); assay: Biacore, biotin-captured hFcRn, pH 8.0
# [10] = biological target: biotinylated cynomolgus FcRn (cynomolgus) (UniProt Q8SPV9); assay: Biacore, biotin-captured cFcRn, pH 6.0
# [11] = biological target: biotinylated cynomolgus FcRn (cynomolgus) (UniProt Q8SPV9); assay: Biacore, biotin-captured cFcRn, pH 7.4
# [12] = biological target: biotinylated cynomolgus FcRn (cynomolgus) (UniProt Q8SPV9); assay: Biacore, biotin-captured cFcRn, pH 8.0
# [13] = biological target: biotinylated human FcRn (p51 subunit residues 24-297 with C-terminal Avi-tag; beta2-microglobulin residues 21-119) (human) (UniProt P55899); assay: Biacore; inverse ratio (RU at pH 7.4 over affinity at pH 6.0)
# [14] = biological target: biotinylated human FcRn (human) (UniProt P55899); assay: Biacore, biotin-captured hFcRn, pH 7.4, 1000 nM antibody
# [15] = biological target: biotinylated human FcRn (human) (UniProt P55899); assay: Biacore, biotin-captured hFcRn, pH 8.0, 1000 nM antibody
# [16] = biological target: biotinylated human FcRn (human) (UniProt P55899); assay: Biacore, biotin-captured hFcRn, pH 9.0, 1000 nM antibody
# [17] = biological target: biotinylated cynomolgus FcRn (cynomolgus) (UniProt Q8SPV9); assay: Biacore, biotin-captured cFcRn, pH 7.4, 1000 nM antibody
# [18] = biological target: biotinylated cynomolgus FcRn (cynomolgus) (UniProt Q8SPV9); assay: Biacore, biotin-captured cFcRn, pH 8.0, 1000 nM antibody
# [19] = biological target: biotinylated cynomolgus FcRn (cynomolgus) (UniProt Q8SPV9); assay: Biacore, biotin-captured cFcRn, pH 9.0, 1000 nM antibody
# [20] = biological target: biotinylated human FcRn (p51 subunit residues 24-297 with C-terminal Avi-tag; beta2-microglobulin residues 21-119) (human) (UniProt P55899); assay: Biacore; affinity at pH 6.0 (M^-1) over steady state RU at pH 7.4
# [21] = biological target: biotinylated human FcRn (human) (UniProt P55899); assay: Biacore, pH 6.0
# rat FcRn (rat) [22] = biological target: rat FcRn (rat) (UniProt P13599); assay: Biacore, pH 6.0
# Sequence of rat FcRn (rat) (P13599 23-298 limits assumed, chain 1 of 2): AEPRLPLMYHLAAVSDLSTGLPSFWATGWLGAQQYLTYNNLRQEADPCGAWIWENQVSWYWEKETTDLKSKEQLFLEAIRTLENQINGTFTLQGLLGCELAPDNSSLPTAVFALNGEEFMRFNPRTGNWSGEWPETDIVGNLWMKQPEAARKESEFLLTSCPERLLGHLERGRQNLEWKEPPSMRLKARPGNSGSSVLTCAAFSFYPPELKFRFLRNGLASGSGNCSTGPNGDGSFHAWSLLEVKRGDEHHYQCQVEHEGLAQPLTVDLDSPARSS
# Sequence of rat FcRn (rat) (P07151 21-119 limits assumed, chain 2 of 2, further chain): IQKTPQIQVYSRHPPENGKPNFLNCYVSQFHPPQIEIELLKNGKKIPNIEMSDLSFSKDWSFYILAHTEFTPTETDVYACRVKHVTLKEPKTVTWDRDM
# rat FcRn (rat) [23] = biological target: rat FcRn (rat) (UniProt P13599); assay: Octet BLI, pH 6.0
# [24] = biological target: biotinylated human FcRn (human) (UniProt P55899); assay: Biacore SPR, pH 6.0
# rat FcRn (rat) [25] = biological target: rat FcRn (rat) (UniProt P13599); assay: Biacore SPR, pH 6.0
# [26] = biological target: biotinylated human FcRn (human) (UniProt P55899); assay: Biacore, pH 6.0, apparent KD
# rat FcRn (rat) [27] = biological target: rat FcRn (rat) (UniProt P13599); assay: Biacore, pH 6.0, apparent KD
# [28] = biological target: biotinylated human FcRn (human) (UniProt P55899); assay: Biacore SPR, pH 7.4, 1000 nM antibody
# rat FcRn (rat) [29] = biological target: rat FcRn (rat) (UniProt P13599); assay: Biacore SPR, pH 7.4, 1000 nM antibody
# [30] = biological target: FcRn immobilised on the FcRn affinity column (biotinylated cynoFcRn in one experiment, biotinylated hFcRn in another); assay: FcRn affinity chromatography, linear pH gradient; species of the immobilised FcRn not given
# rat FcRn (rat) [31] = biological target: rat FcRn (rat) (UniProt P13599); assay: Biacore, pH 7.4, steady state response
# [32] = biological target: Human CD16a (FcγRIIIa V158) with C-terminal HPC4 tag (human) (UniProt P08637); assay: Biacore, FcγRIIIa V158 captured, steady-state fit, apparent KD
# Sequence of biotinylated human FcRn (human) (P55899 24-297 limits assumed, chain 1 of 2): as the sequence (P55899 24-297 limits assumed, chain 1 of 2) above
# Sequence of biotinylated human FcRn (human) (P61769 21-119 limits assumed, chain 2 of 2, further chain): as the sequence (P61769 21-119 limits assumed, chain 2 of 2, further chain) above
# Sequence of Human CD16a (FcγRIIIa residues 17-208 with C-terminal HPC4 tag and valine at position 158) (human) (P08637 17-208 F176V): as the sequence (P08637 17-208 F176V) above
substance,measurement,setting,value
mAb1 YEQF (M252Y/T256E/T307Q/N434F) (antibody),Kd,[1],15 nM
same,koff,[1],0.0121 s⁻¹
same,kon,[1],790000 M⁻¹ s⁻¹
same,FcγRIIIa Binding Steady State RU,[2],226 RU
mAb2 YD (M252Y/T256D) (antibody),Steady State RU,[3],22 RU
same,Steady State RU,[4],27 RU
same,Steady State RU,mouse FcRn (mouse),394 RU
same,FcγRIIIa V158 Affinity Fold Change (fold relative to WT),[5],0.58
mAb1 MDWY (T256D/T307W/N434Y) (antibody),Ka,[6],8.4e+07 M⁻¹
same,"Steady State Binding, pH 7.4 (RU)",[7],59 RU
same,Kd,[1],18 nM
same,koff,[1],0.0123 s⁻¹
same,kon,[1],700000 M⁻¹ s⁻¹
same,Kd,[8],101 nM
same,koff,[8],0.05 s⁻¹
same,kon,[8],500000 M⁻¹ s⁻¹
same,Kd,[9],2700 nM
same,koff,[9],0.54 s⁻¹
same,kon,[9],260000 M⁻¹ s⁻¹
same,Kd,[10],15 nM
same,koff,[10],0.0103 s⁻¹
same,kon,[10],700000 M⁻¹ s⁻¹
same,Kd,[11],85 nM
same,koff,[11],0.029 s⁻¹
same,kon,[11],350000 M⁻¹ s⁻¹
same,Kd,[12],1200 nM
same,koff,[12],0.69 s⁻¹
same,kon,[12],620000 M⁻¹ s⁻¹
same,Ratio (pH 6.0/pH 7.4),[13],7.02e-07
same,Steady State RU,[14],125 RU
same,Steady State RU,[15],145 RU
same,Steady State RU,[16],0.7 RU
same,Steady State RU,[17],165 RU
same,Steady State RU,[18],197 RU
same,Steady State RU,[19],1.3 RU
same,Ratio (pH 6.0/pH 7.4),[20],1.42e+06
same,FcγRIIIa Binding Steady State RU,[2],211 RU
mAb1 T307E (antibody),koff,[21],0.3 s⁻¹
same,kon,[21],44000 M⁻¹ s⁻¹
same,koff,rat FcRn (rat) [22],0.006 s⁻¹
same,kon,rat FcRn (rat) [22],56000 M⁻¹ s⁻¹
same,koff,rat FcRn (rat) [23],0.00329 s⁻¹
same,Kd,[24],8130 nM
same,koff,[24],0.298 s⁻¹
same,kon,[24],43700 M⁻¹ s⁻¹
same,Kd,rat FcRn (rat) [25],141 nM
same,koff,rat FcRn (rat) [25],0.00603 s⁻¹
same,kon,rat FcRn (rat) [25],55500 M⁻¹ s⁻¹
same,Kd,[26],8130 nM
same,Kd,rat FcRn (rat) [27],141 nM
same,Steady State RU,[28],5.7 RU
same,Steady State RU,rat FcRn (rat) [29],21.5 RU
same,FcRn affinity column elution pH,[30],7.58 pH
YTEKF benchmark (M252Y/S254T/T256E/H433K/N434F) hIgG1 (antibody),FcγRIIIa Binding Steady State RU,[2],207 RU
mAb1 YDWY (M252Y/T256D/T307W/N434Y) (antibody),Ka,[6],2.66e+08 M⁻¹
same,"Steady State Binding, pH 7.4 (RU)",[7],88.5 RU
same,Kd,[1],5.2 nM
same,Kd,[9],700 nM
same,Kd,[10],3.2 nM
same,Kd,[11],49 nM
same,Kd,[12],1500 nM
same,Steady State RU,[14],166 RU
same,Steady State RU,[15],281 RU
same,Steady State RU,[16],10.4 RU
same,Steady State RU,[17],178 RU
same,Steady State RU,[18],354 RU
same,Steady State RU,[19],16 RU
same,FcγRIIIa Binding Steady State RU,[2],136 RU
mAb2 DW (T256D/T307W) (antibody),Steady State RU,[3],15 RU
same,Steady State RU,[4],18 RU
same,Steady State RU,mouse FcRn (mouse),257 RU
same,FcγRIIIa V158 Affinity Fold Change (fold relative to WT),[5],1.15
mAb2 DQ (T256D/T307Q) (antibody),Steady State RU,[3],11 RU
same,Steady State RU,[4],14 RU
same,Steady State RU,mouse FcRn (mouse),248 RU
same,FcγRIIIa V158 Affinity Fold Change (fold relative to WT),[5],1.05
mAb2 LS (M428L/N434S) (antibody),Steady State RU,[3],38 RU
same,Steady State RU,[4],44 RU
same,Steady State RU,mouse FcRn (mouse),285 RU
same,FcγRIIIa V158 Affinity Fold Change (fold relative to WT),[5],1.23
mAb1 AAA (T307A/E380A/N434A) (antibody),koff,rat FcRn (rat) [22],0.0117 s⁻¹
same,kon,rat FcRn (rat) [22],157000 M⁻¹ s⁻¹
same,koff,rat FcRn (rat) [23],0.00377 s⁻¹
same,Kd,rat FcRn (rat) [25],77 nM
same,koff,rat FcRn (rat) [25],0.0117 s⁻¹
same,kon,rat FcRn (rat) [25],157000 M⁻¹ s⁻¹
same,Kd,rat FcRn (rat) [27],77 nM
same,Steady State RU,rat FcRn (rat) [29],23.6 RU
same,Steady State RU,rat FcRn (rat) [31],23.6 RU
same,Kd,[32],450 nM
same,FcRn affinity column elution pH,[30],7.94 pH
mAb1 YEWF (M252Y/T256E/T307W/N434F) (antibody),Kd,[1],13 nM
same,koff,[1],0.0103 s⁻¹
same,kon,[1],810000 M⁻¹ s⁻¹
same,FcγRIIIa Binding Steady State RU,[2],163 RU
mAb1 YDWF (M252Y/T256D/T307W/N434F) (antibody),Ka,[6],1.66e+08 M⁻¹
same,"Steady State Binding, pH 7.4 (RU)",[7],71.8 RU
same,Kd,[8],194 nM
same,Kd,[9],1300 nM
same,Kd,[10],8.6 nM
same,Kd,[11],115 nM
same,Kd,[12],680 nM
same,Steady State RU,[14],124 RU
same,Steady State RU,[15],235 RU
same,Steady State RU,[17],173 RU
same,Steady State RU,[18],313 RU
same,Steady State RU,[19],4.6 RU
same,FcγRIIIa Binding Steady State RU,[2],128 RU
